Numbering of substitutions follows the chain as printed.

Sequences and labels used below:
B1: REGN476 (antibody, human IgG4 S228P, V domains shown)
VH: EVQLVESGGGLVQPGRSLRLSCAAPGFNFDDYAMHWVRQAPGKGLEWVSGISWNSGTIGYADSVKGRFTISRDNAKNSLYLQMNSLRAEDTALYYCAKEGVWFGKLFSSYGMDVWGQGTTVTVSS
VL: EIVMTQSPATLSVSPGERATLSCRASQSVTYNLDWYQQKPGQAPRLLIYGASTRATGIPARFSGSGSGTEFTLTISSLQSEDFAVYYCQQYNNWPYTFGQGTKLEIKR
B2: REGN477 (antibody, human IgG4 S228P)
heavy: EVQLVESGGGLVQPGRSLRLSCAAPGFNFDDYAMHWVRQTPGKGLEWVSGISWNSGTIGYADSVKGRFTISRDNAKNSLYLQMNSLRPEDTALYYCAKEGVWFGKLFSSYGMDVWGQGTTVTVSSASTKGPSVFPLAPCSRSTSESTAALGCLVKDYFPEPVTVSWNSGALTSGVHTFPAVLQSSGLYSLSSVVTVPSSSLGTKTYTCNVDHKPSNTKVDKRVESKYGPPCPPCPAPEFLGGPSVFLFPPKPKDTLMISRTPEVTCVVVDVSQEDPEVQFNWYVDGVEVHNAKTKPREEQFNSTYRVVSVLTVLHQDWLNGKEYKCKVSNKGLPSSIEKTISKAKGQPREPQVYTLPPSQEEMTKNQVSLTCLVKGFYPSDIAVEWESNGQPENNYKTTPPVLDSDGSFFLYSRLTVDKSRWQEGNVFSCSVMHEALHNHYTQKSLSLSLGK
VL: EIVMTQSPATLSVSPGERATLSCRASQSVTYNLDWYQQKPGQAPRLLIFGASTRATGIPARFSGSGSGTEFTLTITSLQSEDFAVYYCQQYNNWPYTFGQGTKLEIKR
B3: REGN472 (antibody, human IgG1)
heavy: not shown
VL: DIQMTQSPSSLSASVGDRVTITCRASQAIRNDLGWYQQKPGKAPKRLIYAAFNLQSGVPSRFSGSGSGTEFTLTISSLQPEDFATYYCQQYNRYPWTFGQGTKVEIKR
B4: REGN474 (antibody, human IgG4 S228P)
heavy: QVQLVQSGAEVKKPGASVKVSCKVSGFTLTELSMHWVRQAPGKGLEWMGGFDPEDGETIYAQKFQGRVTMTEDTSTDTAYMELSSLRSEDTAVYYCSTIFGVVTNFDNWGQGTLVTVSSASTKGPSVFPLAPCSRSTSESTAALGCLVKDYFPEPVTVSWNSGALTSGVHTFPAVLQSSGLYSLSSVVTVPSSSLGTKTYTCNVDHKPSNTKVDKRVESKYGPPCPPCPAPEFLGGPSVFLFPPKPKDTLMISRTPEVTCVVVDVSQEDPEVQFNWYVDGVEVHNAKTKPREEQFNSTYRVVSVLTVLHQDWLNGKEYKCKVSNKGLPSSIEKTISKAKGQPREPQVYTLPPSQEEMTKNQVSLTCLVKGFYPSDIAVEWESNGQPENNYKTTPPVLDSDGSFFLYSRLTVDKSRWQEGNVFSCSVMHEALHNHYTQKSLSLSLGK
VL: B3 VL
B5: REGN475 (antibody, human IgG4 S228P)
heavy: not shown
VL: B3 VL with V15A, F83L, T85S
B6: human brain derived neurotrophic factor (hBDNF) (ligand, UniProt P23560 129-247, looked up)
chain: HSDPARRGELSVCDSISEWVTAADKKTAVDMSGGTVTVLEKVPVSKGQLKQYFYETKCNPMGYTKEGCRGIDKRHWNSQCRTTQSYVRALTMDSKKRIGWRFIRIDTSCVCTLTIKRGR
B7: human neurotrophin-3 (NT-3) (ligand, UniProt P20783 139-257, looked up)
chain: YAEHKSHRGEYSVCDSESLWVTDKSSAIDIRGHQVTVLGEIKTGNSPVKQYFYETRCKEARPVKNGCRGIDDKHWNSQCKTSQTYVRALTSENNKLVGWRWIRIDTSCVCALSRKIGRT
notes: also called human NT-3
B8: recombinant human TrkA-hFc (Fc fusion, UniProt P04629 33-423, looked up)
chain: AAPCPDACCPHGSSGLRCTRDGALDSLHHLPGAENLTELYIENQQHLQHLELRDLRGLGELRNLTIVKSGLRFVAPDAFHFTPRLSRLNLSFNALESLSWKTVQGLSLQELVLSGNPLHCSCALRWLQRWEEEGLGGVPEQKLQCHGQGPLAHMPNASCGVPTLKVQVPNASVDVGDDVLLRCQVEGRGLEQAGWILTELEQSATVMKSGGLPSLGLTLANVTSDLNRKNVTCWAENDVGRAEVSVQVNVSFPASVQLHTAVEMHHWCIPFSVDGQPAPSLRWLFNGSVLNETSFIFTEFLEPAANETVRHGCLRLNQPTHVNNGNYTLLAANPFGQASASIMAAFMDNPFEFNPEDPIPVSFSPVDTNSTSGDPVEKKDETPFGVSVAVG
notes: extracellular domain; dimeric fusion protein; also called hTrkA-hFc; not shown: Fc portion of human IgG1
B9: recombinant human p75-hFc (Fc fusion, UniProt P08138 29-250, looked up)
chain: KEACPTGLYTHSGECCKACNLGEGVAQPCGANQTVCEPCLDSVTFSDVVSATEPCKPCTECVGLQSMSAPCVEADDAVCRCAYGYYQDETTGRCEACRVCEAGSGLVFSCQDKQNTVCEECPDGTYSDEANHVDPCLPCTVCEDTERQLRECTRWADAECEEIPGRWITRSTPPEGSDSTAPSTQEPEAPPEQDLIASTVAGVVTTVMGSSQPVVTRGTTDN
notes: extracellular domain; dimeric fusion protein; also called hp75-hFc; not shown: Fc portion of human IgG1

In the first experiment the target is T1, human nerve growth factor (NGF) (human, UniProt P01138 122-241).
T1 construct: range 122-241; biotin-labeled in OCTET and ELISA assays; also called human NGF; biotin-NGF
T1 sequence (P01138 122-241 limits assumed): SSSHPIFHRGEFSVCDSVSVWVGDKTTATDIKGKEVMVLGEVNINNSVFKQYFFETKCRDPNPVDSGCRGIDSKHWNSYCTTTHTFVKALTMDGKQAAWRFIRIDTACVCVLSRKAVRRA
Nature of the experiment: BIACORE blocking; % free NGF bound to p75-hFc chip. The source says:
(§1) To identify blocking antibodies, a receptor blocking assay was designed using a BIACORE™ 3000 instrument. Recombinant human TrkA-hFc and human p75-hFc proteins were amine-coupled to a CM5 chip to a density of about 5000-6000 RU.
In general terms: SPR reads the build-up and loss of mass on a sensor chip optically.
Take B1: the “% Binding p75-hFc” value turned out to be 13%.
The same measure, in the same setting: the value for B2 was 13%.
For B3, the “% Binding p75-hFc” value amounted to 7%.
Still for that read-out and setting: the value for B4 was 9%; that for B5 was 10%.

The next experiment deals with T1, human nerve growth factor (NGF). The experiment can be described thus: competition ELISA; 50 pM biotin-NGF, hTrkA-hFc plate. The procedure:
(§2) Specifically, the microtiter plates were prepared by coating the plates with 0.5 μg/ml hTrkA-hFc or 1 μg/ml hp75-hFc solution in PBS buffer overnight at 4° C., followed by blocking the plates with 0.5% BSA prior to use.
B1: the IC50 – broadly, the point on the concentration scale where inhibition reaches its midpoint – is 65 pM.
Molecule B2 showed an IC50 of 65 pM.
B3 showed an IC50 of 12 pM.
On the same count and under the same terms, to B4 belongs 8.1 pM; to B5, 20 pM.

The next experiment concerns the target B5. Nature of the experiment: OCTET; % REGN475 binding to biotin-NGF sensor, no competitor (reference). The procedure:
(§3) Changes in the thickness of the biological layer were measured after incubation. The binding was normalized as a percentage of binding relative to the binding of antibody in absence of competitor.
On to B6, for which the “REGN475 % Binding” value was determined as 100%.
Regarding B7, the “REGN475 % Binding” value came out at 100%.

In a further experiment the target is T1, human nerve growth factor (NGF). The experiment can be described thus: cell-based or functional assay.
T1 sequence (P01138 122-241 limits assumed): as above
Turning to B3, the “IC50 (pM), PC12 SRE-luciferase” value turned out to be 4.5 pM.
The same measure, in the same setting: the value for B4 was 6.6 pM; that for B5 was 9.6 pM.

The next experiment has as its target B7. Nature of the experiment: BIACORE; 20 nM NT-3 + 500 nM agent, % NT-3 bound to p75-hFc chip. The procedure: (§4) Human TrkA-hFc (9300 RU), human TrkB-hFc (6000 RU), human TrkC-hFc (9100 RU) and human p75-hFc (7500 RU) were covalently coupled to BIACORE® CM5 chip surfaces by amine-coupling procedure. […] The binding mixture was first incubated at room temperature to reach equilibrium (about 1 hr) and then was injected over the above TrkA-hFc, TrkB-hFc, TrkC-hFc and p75-hFc surfaces.
B8: the “% binding” value was found to be 7%.
Consider B9, for which the “% binding” value was 4%.

The target of a further experiment is B7. The experiment can be described thus: BIACORE SPR.
For the molecule B1, the binding result is “no binding (tested: 1.25 nM to 40 nM)”.
For the molecule B2, the binding result is on record as “no binding (tested: 1.25 nM to 40 nM)”.
On the same count and under the same terms, the value for B3 was “no binding (tested: 1.25 nM to 40 nM)”.
With B4, the binding result is reported as “no binding (tested: 1.25 nM to 40 nM)”.

In another experiment the target is B7. Nature of the experiment: OCTET solution competition against biotin-NGF sensor. The procedure: as §3
With B5, the binding result is recorded as “no binding (tested: 0 to 4 µM)”.

Another experiment deals with B7. Nature of the experiment: BIACORE; 20 nM NT-3 + 500 nM agent, % NT-3 bound to TrkC-hFc chip. The procedure: as §4
B8: the “% binding” value was 3%.
On the same count and under the same terms, to B5 belongs 101%; to B9, 2%.

The next experiment deals with B7. Nature of the experiment: BIACORE; 20 nM NT-3 + 500 nM agent, % NT-3 bound to TrkA-hFc chip. On the procedure: as §4
For B8, the “% binding” value was determined as 21%.
The same measure, in the same setting: the value for B5 was 90%; that for B9 was 14%.

The target of the next experiment is T1, human nerve growth factor (NGF). Nature of the experiment: BIACORE SPR; purified mAb.
Regarding B1, binding was put at a Kd of 8.91 pM.
On the same count and under the same terms, to B2 belongs 7.98 pM; to B3, 0.41 pM; to B4, 0.41 pM.
Same read-out and setting: the value for B5 was 0.18 pM.

For a further experiment, the target named is rat NGF (rNGF) (rat, UniProt P25427 122-241, limits assumed). The experiment can be described thus: BIACORE SPR; purified mAb.
rat NGF (rNGF), sequence (P25427 122-241 limits assumed): as the sequence (P01138 122-241 limits assumed) above, with S3T, I6V, R9M, M37T, D60A, D65E, M92T, G94D, V117A, A120G counted along it
Consider B1, for which the Kd (as a rule, the constant that tells how readily two partners part at equilibrium) was 155 pM.
For the molecule B2, binding was characterised by a dissociation constant (Kd) of 164 pM.
The same measure, in the same setting: the value for B3 was 3.96 pM; that for B4 was 3.42 pM.
On the same count and under the same terms, to B5 belongs 0.93 pM.

For the next experiment, the target named is mouse NGF (mNGF) (mouse, UniProt P01139 122-241, limits assumed). The experiment can be described thus: BIACORE SPR; purified mAb.
mouse NGF (mNGF), sequence (P01139 122-241 limits assumed): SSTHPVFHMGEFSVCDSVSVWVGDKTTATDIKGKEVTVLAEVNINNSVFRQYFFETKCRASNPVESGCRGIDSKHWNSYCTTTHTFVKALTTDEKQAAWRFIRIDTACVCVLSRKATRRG
Consider B1, for which binding was put at a Kd of 115 pM.
Molecule B2 returned a Kd of 133 pM.
On the same count and under the same terms, to B3 belongs 0.61 pM; to B4, 0.43 pM.
Same read-out and setting: the value for B5 was 0.36 pM.

The next experiment concerns the target B7. Nature of the experiment: BIACORE; 20 nM NT-3 + 500 nM agent, % NT-3 bound to TrkB-hFc chip. On the procedure:
as §4
As to B8, the “% binding” value was determined as 5%.
The same measure, in the same setting: the value for B5 was 99%; that for B9 was 2%.

A further experiment addresses T2, humanized anti-human NGF monoclonal antibody E3 ("RN624") (tanezumab; CAS Registry No. 880266-57-9).
T2 construct: control antibody; also called Control (RN624); Control mAb (RN624)
Nature of the experiment: OCTET; % RN624 binding to biotin-NGF sensor, no competitor (reference). The procedure:
as §3
In the case of B6, the “RN624 % Binding” value amounted to 100%.
The same measure, in the same setting: the value for B7 was 100%.

Another experiment deals with T1, human nerve growth factor (NGF). Nature of the experiment: BIACORE SPR; purified mAb. The source holds these as a separate data set. The procedure: Antibodies were captured on either a goat, anti-human or anti-mouse IgG polyclonal antibody surface created by direct amine coupling of the capture antibody to a BIACORE™ chip. […] Kinetic analysis was performed to obtain the equilibrium dissociation constant (KD) and dissociation rate constant, and the latter was used to calculate the antigen/antibody complex dissociation t_{1/2} (Table 1).
Molecule B1 returned a Kd of 8.91 pM and a t1/2 of 4 h.
The corresponding values for B2 are 7.98 pM and 4 h.
Regarding B3, binding was characterised by a dissociation constant (Kd) of 0.41 pM and the t1/2 came to 30 h.
The corresponding values for B4 are 0.41 pM and 31 h.
The corresponding values for B5 are 0.18 pM and 57 h.

The target is the same in the next experiment. The experiment can be described thus: competition ELISA; 50 pM biotin-NGF, hp75-hFc plate. The procedure: as §2
Consider B1, for which the IC50 worked out at 61 pM.
Still for that read-out and setting: to B2 belongs 62 pM; to B3, 12 pM.
Same read-out and setting: the value for B4 was 6.3 pM; that for B5 was 22 pM.

Another experiment has the same target. The experiment can be described thus: BIACORE blocking; % free NGF bound to TrkA-hFc chip.
From the text: as §1
For B1, the “% Binding TrkA-hFc” value is 6%.
Still for that read-out and setting: the value for B2 was 9%; that for B3 was 4%; that for B4 was 6%.
Still for that read-out and setting: to B5 belongs 6%.

The values are drawn from patent US20120164688A1 (Regeneron, published 2012).
